Data from PMC11255866.
Read-outs that look alike come from different tables or passages of the source.

Experiments:
Assay in all cases: fluorescence polarisation
[1] = molecular target: U1‐70K BAD1 255–278 (human) (UniProt P08621)
[2] = molecular target: SRSF1 RRM1 (residues 14–90), Alexa Fluor 488 labelled (human) (UniProt Q07955)
[3] = molecular target: SRSF1 RRM1 (residues 14–90), Alexa Fluor 488 labelled (human) (UniProt Q07955); remark: listed apart in the source
[4] = molecular target: Hyper‐phosphorylated SRSF1 (phosphorylated by Clk1), Alexa Fluor 488 labelled at T248C (human) (UniProt Q07955)
Sequence of Hyper‐phosphorylated SRSF1 (phosphorylated by Clk1), Alexa Fluor 488 labelled at T248C (human) (Q07955 whole entry T248C): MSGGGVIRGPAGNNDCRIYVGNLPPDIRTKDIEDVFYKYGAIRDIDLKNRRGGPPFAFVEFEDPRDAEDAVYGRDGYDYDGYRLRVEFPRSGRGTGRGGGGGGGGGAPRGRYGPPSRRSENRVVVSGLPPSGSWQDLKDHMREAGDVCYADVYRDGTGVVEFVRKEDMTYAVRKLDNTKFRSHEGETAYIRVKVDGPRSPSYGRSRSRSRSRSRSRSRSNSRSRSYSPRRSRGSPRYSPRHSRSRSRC

Sequence of U1‐70K RRM (residues 64–202) (P08621 64-202): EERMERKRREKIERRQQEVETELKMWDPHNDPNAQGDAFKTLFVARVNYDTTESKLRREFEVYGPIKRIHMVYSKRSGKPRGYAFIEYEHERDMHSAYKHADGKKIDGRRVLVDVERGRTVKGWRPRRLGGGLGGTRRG
Sequence of Hyper phosphorylated SRSF1 RS (residues 199–248), unlabelled (Q07955 199-248): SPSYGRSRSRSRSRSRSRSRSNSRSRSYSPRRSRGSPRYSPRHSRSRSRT
Sequence of U1‐70K RRM 92–202 (P08621 92-202): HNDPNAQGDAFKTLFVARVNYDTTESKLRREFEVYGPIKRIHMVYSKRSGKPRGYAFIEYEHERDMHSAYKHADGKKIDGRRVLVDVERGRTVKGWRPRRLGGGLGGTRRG
Sequence of U1‐70K BAD1 (residues 229–306) (P08621 229-306): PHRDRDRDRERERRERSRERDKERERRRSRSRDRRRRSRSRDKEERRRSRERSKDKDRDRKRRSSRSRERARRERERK

Kd [2] [nM] | Kd [3] [nM] | Substance | other results
– | – | Hyper phosphorylated SRSF1 RS (residues 199–248), unlabelled (from UniProt Q07955 199-248) (domain or fragment) | Kd [1]: 2000 nM
240 | – | U1‐70K BAD1 (residues 229–306) (from UniProt P08621 229-306) (domain or fragment) | –
– | 7000 | U1‐70K RRM 92–202 (from UniProt P08621 92-202) (domain or fragment) | –
3000 | 6000 | U1‐70K RRM (residues 64–202) (from UniProt P08621 64-202) (domain or fragment) | –
– | – | U1‐70K ΔBAD2 (domain or fragment) | Kd [4]: 650 nM
